Patent EP2108954A1, “A test system for detecting intracellular cyclic nucleotide level and methods and uses thereof” (Max-Planck-Gesellschaft zur Förderung der Wissenschaften …, priority 2008, dated 2009)
The star is where a group is joined. Myristoyl = CCCCCCCCCCCCCC(=O)*

Target: T1, Or83b (Drosophila melanogaster, UniProt Q9VNB5)
T1 sequence (Q9VNB5 1-486): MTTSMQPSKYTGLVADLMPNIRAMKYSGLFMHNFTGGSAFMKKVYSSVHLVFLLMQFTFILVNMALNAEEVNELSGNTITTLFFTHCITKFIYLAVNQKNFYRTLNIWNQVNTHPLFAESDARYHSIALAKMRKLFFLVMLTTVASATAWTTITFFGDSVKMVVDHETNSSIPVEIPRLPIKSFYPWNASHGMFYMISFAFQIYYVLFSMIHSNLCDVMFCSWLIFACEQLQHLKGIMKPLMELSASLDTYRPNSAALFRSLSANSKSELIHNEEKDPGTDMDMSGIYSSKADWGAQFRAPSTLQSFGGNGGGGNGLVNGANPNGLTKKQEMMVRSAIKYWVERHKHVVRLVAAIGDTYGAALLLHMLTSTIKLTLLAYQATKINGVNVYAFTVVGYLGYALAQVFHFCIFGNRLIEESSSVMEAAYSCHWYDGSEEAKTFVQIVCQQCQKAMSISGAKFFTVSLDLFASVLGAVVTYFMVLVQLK
Assay: Whole-cell patch-clamp of HEK293 cells expressing Or83b alone
Type: cell-based
Set-up: expressed in transfected cells; host or cells: HEK293
Settings: 1 µM; n = 6
Procedure: HEK293 cells were cultured as described by Wicher and colleagues (Wicher et al., J. Biol. Chem. 281, 3227-36 (2006)). In brief, HEK293 cells were cultured at a density of ∼2*10^4 per 35-mm dish and transfected with 1 µg pcDNA3-DOR22a-GFP and 1 µg pcDNA3-DOR83b-GFP (Neuhaus, et al., Nat. Neurosci. 8, 15-17 (2005); DNAs were a generous gift of Dr. E. Neuhaus and Dr. H. Hatt) using Roti-Fect transfection kit (Roth, Karlsruhe, Germany). In some experiments we transfected cells with pcDNA3-DOR22a-GFP or pcDNA3-DOR83b-GFP alone. We also examined the properties of DOR47a, which was cloned, using standard molecular biology methods into a pcDNA3.1(-) expression vector. To test for putative G-protein coupling, cells were transfected with the respective OR-DNA together with 1.5 µg hHCN2/pcDNA3 (provided by M. Biel, Munich, Germany), with 1 µg hKCNQ4/pcDNA3.1 or with 1 µg hCNGA2/pCMV6-XL4 (Origene, Rockville, MD, USA).
Ion currents in HEK293 cells were measured with the patch-clamp technology as described (Wicher et al, J. Biol. Chem. 281, 3227-36 (2006)). In brief, ion currents in HEK293 cells were measured at room temperature using whole-cell patch-clamp with appropriate compensation of series resistance and of capacitive currents. Additional experiments were performed in the outside-out configuration. […]

Q: With “myristoylated PKA inhibiting peptide 14-22 amide (Myristoyl-SGRTGRRNA-NH2; SMILES CCCCCCCCCCCCCC(=O)N[C@@H](CO)C(=O)NCC(=O)N[C@@H](CCCNC(=N)N)C(=O)N[C@H](C(=O)NCC(=O)N[C@@H](CCCNC(=N)N)C(=O)N[C@@H](CCCNC(=N)N)C(=O)N[C@@H](CC(N)=O)C(=O)N[C@@H](C)C(N)=O)[C@@H](C)O; UniProt P61925 14-22, looked up, fragment) [PKI1422]” as the substance, how does the “effect of preincubation on ion currents elicited by 8-bromo-cAMP” value read?
A: Its value is “not significantly altered”.
